From the RNAGym collection of RNA variant scans (doi:10.1073/pnas.2313332121) come the findings set out here.

To fix the notation:
B1: TPR t1 (parent)
chain: GACCAAUCUGCCCUCAGAGCUCGAGAACAUCUUCGGAUGCAGAGGAGGCAGGCUUCGGUGGCGCGAUAGCGCCAACGUCCUCAACCUCCAAUGCAUCCCACCACAUGAUGAUGCCUGAAGAGCCUUGGUUUUUUG

Variants of B1 are the subject of this series. Kind of series: polymerase ribozyme fitness, log enrichment relative to wild type (log ratio); higher = more active; in vitro selection for triplet polymerase activity. The gist of the method:
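Mutant libraries were PCR-built and transcribed for each subunit of a heterodimeric triplet polymerase ribozyme and selected for one round in triplicate at −7 °C, frozen, before gel excision of extended constructs and streptavidin-bead capture. Input and output libraries were Illumina-sequenced, keeping genotypes with ≥10 input reads and ≥1 read per output. Fitness is a logarithmic ratio of genotype to wild-type enrichment, in base 2, using inverse-variance-weighted replicate averages.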
Turning to A24U C28G A84C G120U, the “polymerase ribozyme fitness (log ratio)” value is -7.73.
To A24U C124A belongs -3.28; to A26U C56G, -3.48.
As to A26U C53U C56G A100C, the “polymerase ribozyme fitness (log ratio)” value is -5.42.
For the variant A27C C62A A119G A121U, the “polymerase ribozyme fitness (log ratio)” value is -2.98.
Turning to A27U A66C A83U, the “polymerase ribozyme fitness (log ratio)” value is -4.44.
In the case of C28A A66C A111U C115G, the “polymerase ribozyme fitness (log ratio)” value is -6.53.
The result for A27U C62U reads -3.58; that for A27G A50G C72U U81A, -2; that for A27C C104U, -3.21.
As for A27U C97A, the “polymerase ribozyme fitness (log ratio)” value was -7.67.
In the case of G25C G61C U92G G117U, the “polymerase ribozyme fitness (log ratio)” value was -6.32.
Consider A24G G69C C85G, for which the “polymerase ribozyme fitness (log ratio)” value is -4.96.
In the case of A26G G45A U78G C124U U129G, the “polymerase ribozyme fitness (log ratio)” value is -4.5.
Turning to A27G G45U A46C C49U C124A G128A, the “polymerase ribozyme fitness (log ratio)” value is -5.34.
The result for A26G U78C U106A G113U C115A reads -5.3; that for A24U U30G G63U C102G, -5.42.
Turning to A24G A84U, the “polymerase ribozyme fitness (log ratio)” value is -1.7.
To C28A C40G belongs -6.86; to A24G U59A U78C C85G U106G, -3.94; to C28A G60A, -2.44.
In the case of A27U C123G, the “polymerase ribozyme fitness (log ratio)” value was -0.165.
The result for A27U C123U reads -1.65.
To A26G G51U C101U belongs -5.8.
The result for A24G G117C G128A reads -6.86; that for A24U G39U G60U C115A U129C, -6.65; that for A27U G60A, -3.35.
Turning to A27U G113U, the “polymerase ribozyme fitness (log ratio)” value is -4.99.
In the case of G25A C56A, the “polymerase ribozyme fitness (log ratio)” value was -5.23.
Regarding A26C G117C G122A, the “polymerase ribozyme fitness (log ratio)” value was -7.15.
A24G U112G: the “polymerase ribozyme fitness (log ratio)” value is -1.29.
Turning to A24U G61U C88A G117C, the “polymerase ribozyme fitness (log ratio)” value is -6.74.
A24G C115U: the “polymerase ribozyme fitness (log ratio)” value was -2.59.
Regarding A24U U38A C72U C80G C99U, the “polymerase ribozyme fitness (log ratio)” value is -7.56.
To G25U C64G C88A G110A G120C C123U belongs -6.08.
For C28A A50C C82U C115A, the “polymerase ribozyme fitness (log ratio)” value is -4.58.
Consider A26C C53U U54A G60U, for which the “polymerase ribozyme fitness (log ratio)” value is -5.26.
With A24C G63C C79G A90C C124A, the “polymerase ribozyme fitness (log ratio)” value is -7.24.
With A27U A37C A91G C94U U106C, the “polymerase ribozyme fitness (log ratio)” value was -5.4.
To G25C G69U belongs -4.39.
The result for A27G C49A reads -2; that for A26G U30C, -4.29; that for A27C C53G, -2.64.
The result for A27C G60A reads -3.37; that for A27G C56A, -2.09.
Turning to C28G C40U C86A, the “polymerase ribozyme fitness (log ratio)” value is -3.65.
With A27U G61C, the “polymerase ribozyme fitness (log ratio)” value is -5.97.
On to G23U A26G G63U C82G U133A, for which the “polymerase ribozyme fitness (log ratio)” value was -7.09.
In the case of A24G A43G, the “polymerase ribozyme fitness (log ratio)” value was -3.13.
The result for G23U C70A A91G G107U C114U reads -5.99; that for A24G G36U C56U C101U, -3.37; that for A26G C70G, -3.51.
Turning to G23C G69U, the “polymerase ribozyme fitness (log ratio)” value is -5.11.
Take C28A G71C C89G A121U C124A: the “polymerase ribozyme fitness (log ratio)” value is -5.37.
On to G25C C53A, for which the “polymerase ribozyme fitness (log ratio)” value was -6.51.
G25U A121C: the “polymerase ribozyme fitness (log ratio)” value was -4.83.
For A26C G61U U78C C80U A83G U116G, the “polymerase ribozyme fitness (log ratio)” value was -6.77.
For G25A A26G A46U G63A A118C G120A, the “polymerase ribozyme fitness (log ratio)” value is -5.5.
As for A26C C34U G36U C72A, the “polymerase ribozyme fitness (log ratio)” value is -6.66.
The result for A27C G48A C86G U92A A103G A105C U109G reads -7.14; that for A27U C70U G122A, -3.96; that for A26U C115U, -4.53.
As for A27G G48U, the “polymerase ribozyme fitness (log ratio)” value was -2.47.
As to A27U G47C G48A U78C A95G, the “polymerase ribozyme fitness (log ratio)” value is -5.5.
As to A26C U106A G122A, the “polymerase ribozyme fitness (log ratio)” value was -2.97.
Turning to A26U G39C G47A C82A A118U, the “polymerase ribozyme fitness (log ratio)” value was -4.78.
A26U A41C A46U C101U: the “polymerase ribozyme fitness (log ratio)” value is -6.28.
G25U A46G: the “polymerase ribozyme fitness (log ratio)” value was -6.02.
Regarding A24G C73A, the “polymerase ribozyme fitness (log ratio)” value was -1.74.
For G25A C73A, the “polymerase ribozyme fitness (log ratio)” value is -6.13.
Regarding A27G C62G A83G C86U, the “polymerase ribozyme fitness (log ratio)” value was -5.4.
In the case of A27U A41U C49U C72U, the “polymerase ribozyme fitness (log ratio)” value was -5.06.
To G23U C73G belongs -4.76; to A27C C56G U78C C80U U81A, -3.58; to A26U G52U C94G C114A, -7.17.
To A27G C56G U81A C94A G122A C123A U131A belongs -5.75; to A26U U96A U116G A121G, -3.67.
Turning to A26U C80U, the “polymerase ribozyme fitness (log ratio)” value was -4.31.
For A27G U129C, the “polymerase ribozyme fitness (log ratio)” value is -3.02.
As to A27G G47A C53G, the “polymerase ribozyme fitness (log ratio)” value was -2.77.
C28A C40G G44C G51A U112A: the “polymerase ribozyme fitness (log ratio)” value was -6.79.
G23U G51A C70A C101A G110A C114A: the “polymerase ribozyme fitness (log ratio)” value was -6.74.
Regarding A26G C80U G120U, the “polymerase ribozyme fitness (log ratio)” value is -3.13.
C28A U132C: the “polymerase ribozyme fitness (log ratio)” value was -4.37.
